{
  "source": "paper doi:10.1101/2020.08.13.249979",
  "about": "(bioRxiv, 2020)",
  "proteins": {"B1": {"name": "Vipp1Δα6_(1-219) (domain or fragment)", "chain": "MGLFDRIKRVVSSNLNDLVNKAEDPEKMLEQAILEMQEDLVQLRQGVAQAIAAQKRSEKQYNDAQNEINKWQRNAQLALQKGDENLARQALERKKTYTDTSAALKASLDTQSTQVETLKRNLIQLESKISEAKTKKEMLKARITTAKAQEQLQGMVRGMNTSSAMSAFERMEEKVLMQESRAQALGELAGADLETQFAQLEGGSDVDDELAALKAQMLP"}, "B2": {"name": "Vipp1/IM30 from Nostoc punctiforme, full-length (amino acids 1-258) (natural protein)", "chain": "MGLFDRIKRVVSSNLNDLVNKAEDPEKMLEQAILEMQEDLVQLRQGVAQAIAAQKRSEKQYNDAQNEINKWQRNAQLALQKGDENLARQALERKKTYTDTSAALKASLDTQSTQVETLKRNLIQLESKISEAKTKKEMLKARITTAKAQEQLQGMVRGMNTSSAMSAFERMEEKVLMQESRAQALGELAGADLETQFAQLEGGSDVDDELAALKAQMLPPATPVTQAQLPPQQETTPAKSNEVVDAELDSLRKQLDQL"}, "B3": {"name": "Vipp1_(L86C/L193C) (natural protein)", "chain": "MGLFDRIKRVVSSNLNDLVNKAEDPEKMLEQAILEMQEDLVQLRQGVAQAIAAQKRSEKQYNDAQNEINKWQRNAQLALQKGDENCARQALERKKTYTDTSAALKASLDTQSTQVETLKRNLIQLESKISEAKTKKEMLKARITTAKAQEQLQGMVRGMNTSSAMSAFERMEEKVLMQESRAQALGELAGADCETQFAQLEGGSDVDDELAALKAQMLPPATPVTQAQLPPQQETTPAKSNEVVDAELDSLRKQLDQL"}},
  "key": {"negative stain EM": {"target": "the molecule itself", "test": "negative stain EM"}, "cryo-EM structure": {"target": "the molecule itself", "test": "cryo-EM structure"}, "cross-linking": {"target": "the molecule itself", "test": "cross-linking"}},
  "note": "Values joined by “and” are separate entries in the source; they are usually repeats but may differ in a detail not shown here. Equal values may be shown once.",
  "data": [
    {"protein": "B1", "values": [
      {"measurement": "binding result", "setting": "negative stain EM", "result": "binds"}
    ]},
    {"protein": "B2", "values": [
      {"measurement": "stoichiometry N", "setting": "cryo-EM structure", "result": "84 subunits and 55 subunits to 119 subunits (2×)"}
    ]},
    {"protein": "B3", "values": [
      {"measurement": "binding result", "setting": "cross-linking", "result": "binds"}
    ]}
  ]
}
